From US20230019513A1 come the findings set out here.

For the assay, the target named is murine Protein S (mouse) (UniProt Q08761). As to the kind of experiment: cell-based or functional assay.
Chain of UniProt Q08761 (Q08761 42-675): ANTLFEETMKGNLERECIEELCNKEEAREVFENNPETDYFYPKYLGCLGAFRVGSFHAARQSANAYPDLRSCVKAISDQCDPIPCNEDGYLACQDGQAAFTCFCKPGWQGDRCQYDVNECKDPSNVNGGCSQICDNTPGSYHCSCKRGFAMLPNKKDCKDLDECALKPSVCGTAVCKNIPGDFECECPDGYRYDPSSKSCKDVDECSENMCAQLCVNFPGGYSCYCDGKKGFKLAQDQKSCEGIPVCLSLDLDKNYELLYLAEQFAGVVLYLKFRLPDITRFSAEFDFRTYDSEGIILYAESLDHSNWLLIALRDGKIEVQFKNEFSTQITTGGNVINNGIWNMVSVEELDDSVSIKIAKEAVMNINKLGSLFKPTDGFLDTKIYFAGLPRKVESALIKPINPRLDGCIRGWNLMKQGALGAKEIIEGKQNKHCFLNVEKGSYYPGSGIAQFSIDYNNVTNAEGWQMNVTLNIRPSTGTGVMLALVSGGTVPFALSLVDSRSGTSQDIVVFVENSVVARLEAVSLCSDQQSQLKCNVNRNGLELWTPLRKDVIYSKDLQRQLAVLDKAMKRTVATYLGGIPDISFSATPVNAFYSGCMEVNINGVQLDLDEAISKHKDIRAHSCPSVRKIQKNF

In turn, “mutated recombinant mouse APC (rmAPC L38D) (from UniProt P33587 42-460) (enzyme)” gave a reduction of ETP in Ca2+ ionophore-activated PRP of WT mice at 8 nM APC of 30%.

For “wild type recombinant mouse APC (wt-rmAPC) (from UniProt P33587 42-460) (enzyme)”, the reduction of ETP in Ca2+ ionophore-activated PRP of WT mice at 8 nM APC was 90%.
